Measurements: the supplement of paper PMC10567573

B1: TRIM39 (parent)
chain: ERDFPCPVCRKTSRYRSLRPNRQL

Variants of: B1
Experiment: protein stability index of a GFP-peptide fusion (GPS, HEK-293T) (PSI 1-6); higher = more stable
Conditions: c terminus: a fixed tail appended
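Note: lentivirally expressed fusions sorted by FACS into six bins by GFP to DsRed ratio, PSI derived from sequencing read proportions per bin multiplied by bin number.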

Variant | protein stability index
ERDFPCKVCRKTSRYRSLRPNRQL [P7K] | 2.6
ERDFPCTVCRKTSRYRSLRPNRQL [P7T] | 1.85
ERDFPCQVCRKTSRYRSLRPNRQL [P7Q] | 1.96
EPDFPCPVCRKTSRYRSLRPNRQL [R2P] | 1.78
EHDFPCPVCRKTSRYRSLRPNRQL [R2H] | 2.33
EGDFPCPVCRKTSRYRSLRPNRQL [R2G] | 1.57
ELDFPCPVCRKTSRYRSLRPNRQL [R2L] | 1.63
ENDFPCPVCRKTSRYRSLRPNRQL [R2N] | 1.86
ECDFPCPVCRKTSRYRSLRPNRQL [R2C] | 2.01
EMDFPCPVCRKTSRYRSLRPNRQL [R2M] | 2.28
ERDFPCPVCRKTSRYSSLRPNRQL [R16S] | 2.86
ERDFPCPVCRKTSRYISLRPNRQL [R16I] | 1.24
ERDFPCPVCRKTSRYMSLRPNRQL [R16M] | 1.03
ERDFPCPVCRKTSRYNSLRPNRQL [R16N] | 2.23
ERDFPCPVCRKTSRYKSLRPNRQL [R16K] | 2.14
ERDFPCPVCRKTSRYHSLRPNRQL [R16H] | 2.29
ERDFPCPVCRKTSRYASLRPNRQL [R16A] | 1.43
ERDFPCPVCRKTSRYCSLRPNRQL [R16C] | 2.47
ERDFPCPVCRKTSYYRSLRPNRQL [R14Y] | 2.42
ERDFPCPVCRKTSPYRSLRPNRQL [R14P] | 1.82
ERDFPCPVCRKTSEYRSLRPNRQL [R14E] | 3.71
ERDFPCPVCRKTSAYRSLRPNRQL [R14A] | 2.46
ERDFPCPVCRKTSKYRSLRPNRQL [R14K] | 1.9
ERDFPCPVCRKTSHYRSLRPNRQL [R14H] | 2.15

Variant | protein stability index
ERDFPCPVCRKTSFYRSLRPNRQL [R14F] | 1.96
ERDFPCPVCRKTSNYRSLRPNRQL [R14N] | 1.67
ERDFPCPVCRKTSMYRSLRPNRQL [R14M] | 1.92
ERDFPCPVCRKTSTYRSLRPNRQL [R14T] | 1.58
ERDFPMPVCRKTSRYRSLRPNRQL [C6M] | 3.1
ERDFPHPVCRKTSRYRSLRPNRQL [C6H] | 3.61
ERDFPIPVCRKTSRYRSLRPNRQL [C6I] | 3.24
ERDFPTPVCRKTSRYRSLRPNRQL [C6T] | 3.02
ERDFPAPVCRKTSRYRSLRPNRQL [C6A] | 2.69
ERDFPLPVCRKTSRYRSLRPNRQL [C6L] | 3.19
ERDFPCPVCDKTSRYRSLRPNRQL [R10D] | 2.89
ERDFPCPVCLKTSRYRSLRPNRQL [R10L] | 2.45
ERDFPCPVCPKTSRYRSLRPNRQL [R10P] | 3.13
ERDFPCPVCEKTSRYRSLRPNRQL [R10E] | 1.91
ERDFPCPVCIKTSRYRSLRPNRQL [R10I] | 2.6
ERDFPCPVCQKTSRYRSLRPNRQL [R10Q] | 2.08
ERDFPCPVCRKTSRYRSLRCNRQL [P20C] | 2.44
ERDFPCPVCRKTSRYRSLRSNRQL [P20S] | 1.76
ERDFPCPVCRKTSRYRSLRFNRQL [P20F] | 3.1
ERDFPCPVCRKTSRYRSLRYNRQL [P20Y] | 1.84
ERDFPCPVCRKTSRYRSARPNRQL [L18A] | 2.32
ERDFPCPVCRKTSRYRSVRPNRQL [L18V] | 2.49
ERDFPCPVCRKTSRYRSERPNRQL [L18E] | 2.1
